Reference: patent publication US20230295281A1

How the values were obtained:
[1] = target: oxidized LDL (oxidized low-density lipoprotein) (UniProt P04114); assay: competition ELISA on coated oxLDL; wells preincubated with Pentaglobin; competitor: IgG autoantibodies of COVID-19 sera
[2] = target: oxidized LDL (oxidized low-density lipoprotein) (UniProt P04114); assay: competition ELISA on coated oxLDL; wells preincubated with Pentaglobin; competitor: IgA autoantibodies of COVID-19 sera

“Pentaglobin (human polyclonal immunoglobulin infusion preparation enriched for IgM and IgA)” was tested. Which percent inhibition of autoantibody binding to oxLDL [1] did it give?
Its percent inhibition of autoantibody binding to oxLDL is over 20%.

And the percent inhibition of autoantibody binding to oxLDL [2]?
The percent inhibition of autoantibody binding to oxLDL was over 20%.
